Data from the supplement of paper PMC10724198.
± gives the standard deviation of the averaged measurements.

Test system: Saccharomyces cerevisiae
Test: protein stability index of tFT-peptide fusion (C-terminal peptide) (PSI (0-1 scale)); higher = more stable (slower turnover)
Details: temperature: 30 C
Method: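 MPS profiling in S. cerevisiae of the yeast C-terminome library: the last 12 aa of each annotated ORF are fused to the C-terminus of a sfGFP-mCherry timer, after a GGGS linker. Cells are FACS-sorted into 8 mCherry/sfGFP bins and deep-sequenced. PSI runs from 0 (unstable) to 1 (stable); wild type and das1Δ backgrounds, two technical replicates each.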

[1] = genetic background: das1 deletion

Row | Sequence | protein stability index [1] | protein stability index (genetic background: wild type)
1 | SAAIGAQSGLYI [PBA1 C-terminal 12 aa] | 0.671 ± 0.021 | 0.67 ± 0.0091
2 | IAEGKSLGIIGA [HXK1 C-terminal 12 aa] | 0.6923 ± 0.0061 | 0.686 ± 0.034
3 | QLEKEGEDGLDS [IES4 C-terminal 12 aa] | 0.6881 ± 0.005 | 0.666 ± 0.043
4 | DKIQDARNSSTK [MHP1 C-terminal 12 aa] | 0.677 ± 0.028 | 0.702 ± 0.041
5 | YPTFDDNNFFAL [RFA2 C-terminal 12 aa] | 0.732 ± 0.012 | 0.717 ± 0.0086
6 | ILEYQKRRSFIK [IRC3 C-terminal 12 aa] | 0.7238 ± 0.0049 | 0.652 ± 0.021
7 | FQVVGKKKGKRF [SYH1 C-terminal 12 aa] | 0.715 ± 0.009 | 0.688 ± 0.049
8 | IDKFLNSAVLSA [YMR307C-A C-terminal 12 aa] | 0.5813 ± 0.0033 | 0.637 ± 0.017
9 | QAERQLYDAYFH [YFL064C C-terminal 12 aa] | 0.732 ± 0.023 | 0.733 ± 0.038
10 | SGVGAALCALVA [EMI2 C-terminal 12 aa] | 0.583 ± 0.0075 | 0.602 ± 0.025
11 | TVRKGVYMRLYY [YNL146C-A C-terminal 12 aa] | 0.668 ± 0.0024 | 0.634 ± 0.036
12 | IGSIKEDYLGAI [RPB7 C-terminal 12 aa] | 0.692 ± 0.021 | 0.6737 ± 0.0027
13 | SNLALAGGAFRP [TAF5 C-terminal 12 aa] | 0.711 ± 0.0013 | 0.688 ± 0.016
14 | EDAFLKDVFQQS [KGD1 C-terminal 12 aa] | 0.7394 ± 0.0043 | 0.782 ± 0.093
15 | ATRNLNQYWRVL [YAL019W-A C-terminal 12 aa] | 0.68 ± 0.011 | 0.58 ± 0.023
16 | LRKDRQVEYPYK [MGM101 C-terminal 12 aa] | 0.723 ± 0.033 | 0.779 ± 0.035
17 | VDKYEAGMSITK [SWC4 C-terminal 12 aa] | 0.688 ± 0.0058 | 0.671 ± 0.03
18 | LENLSQEYCSEI [YBR096W C-terminal 12 aa] | 0.715 ± 0.029 | 0.72 ± 0.023
19 | FSDLFSYSKSLV [ENT5 C-terminal 12 aa] | 0.705 ± 0.04 | 0.744 ± 0.013
20 | QGKTFYETVAKF [PST2 C-terminal 12 aa] | 0.77 ± 0.03 | 0.776 ± 0.017
21 | LVRQKREHEKKE [GPT2 C-terminal 12 aa] | 0.713 ± 0.0084 | 0.658 ± 0.021

Row | Sequence | protein stability index [1] | protein stability index (genetic background: wild type)
22 | EFDDYESRMHGI [EAR1 C-terminal 12 aa] | 0.73 ± 0.029 | 0.694 ± 0.0086
23 | KVPPRKDGIKFR [RTS2 C-terminal 12 aa] | 0.728 ± 0.0069 | 0.695 ± 0.018
24 | DNGELDLSGFNI [MED2 C-terminal 12 aa] | 0.696 ± 0.013 | 0.734 ± 0.073
25 | TKEYMDSIRSAK [VPS45 C-terminal 12 aa] | 0.687 ± 0.023 | 0.766 ± 0.099
26 | IEQETGSEEKQE [SBP1 C-terminal 12 aa] | 0.6781 ± 0.0035 | 0.7729 ± 0.0054
27 | DNDNDDDIDSDN [RUP1 C-terminal 12 aa] | 0.704 ± 0.051 | 0.6853 ± 0.0067
28 | DTTFPQDQHDID [PUT7 C-terminal 12 aa] | 0.696 ± 0.012 | 0.629 ± 0.059
29 | KNHEMGEEETKF [TCB1 C-terminal 12 aa] | 0.715 ± 0.0045 | 0.721 ± 0.041
30 | GSESILTAKQPI [OCA2 C-terminal 12 aa] | 0.706 ± 0.0075 | 0.685 ± 0.009
31 | TALLVSYCHLCV [YMR122C C-terminal 12 aa] | 0.625 ± 0.0077 | 0.6243 ± 0.0048
32 | TNPHQADASPKK [MPE1 C-terminal 12 aa] | 0.71 ± 0.023 | 0.702 ± 0.021
33 | LNLPVQVEKKEK [MMR1 C-terminal 12 aa] | 0.69221 ± 0.00034 | 0.692 ± 0.013
34 | FLPFFLRFLCIN [YML116W-A C-terminal 12 aa] | 0.618 ± 0.021 | 0.206 ± 0.021
35 | NKGPPCKTSALL [HMG2 C-terminal 12 aa] | 0.739 ± 0.023 | 0.668 ± 0.011
36 | TSASSNFDDSFS [YCR018C-A C-terminal 12 aa] | 0.6885 ± 0.0016 | 0.717 ± 0.062
37 | TSSNPKSHQYSK [ROF1 C-terminal 12 aa] | 0.717 ± 0.0022 | 0.689 ± 0.029
38 | NLPFYKNQATLQ [YBR131C-A C-terminal 12 aa] | 0.6902 ± 0.005 | 0.707 ± 0.031
39 | CRKGVSHKGVCH [YBL111C C-terminal 12 aa] | 0.721 ± 0.026 | 0.71 ± 0.035
40 | GMLGLSALLGGE [SEC11 C-terminal 12 aa] | 0.687 ± 0.019 | 0.678 ± 0.016
41 | PVIYGLPIKFVS [ESP1 C-terminal 12 aa] | 0.7014 ± 0.0052 | 0.389 ± 0.0063
42 | EQDAILLKKHIS [NAT5 C-terminal 12 aa] | 0.714 ± 0.033 | 0.3 ± 0.029

Row | Sequence | protein stability index [1] | protein stability index (genetic background: wild type)
43 | KAEYLKNCPITQ [RPC40 C-terminal 12 aa] | 0.712 ± 0.012 | 0.719 ± 0.028
44 | EGVVLGQRRDIV [SCP1 C-terminal 12 aa] | 0.696 ± 0.028 | 0.672 ± 0.0097
45 | KNNYSSRNSNIY [MSS116 C-terminal 12 aa] | 0.713 ± 0.0098 | 0.711 ± 0.028
46 | RPIFPFLIVLIS [YBR196C-A C-terminal 12 aa] | 0.16 ± 0.013 | 0.1088 ± 0.00092
47 | KWLLKPCIYKRR [RRP8 C-terminal 12 aa] | 0.717 ± 0.0061 | 0.691 ± 0.016
48 | QASSEKKWYKFW [COX20 C-terminal 12 aa] | 0.755 ± 0.018 | 0.6753 ± 0.0053
49 | QRTLVYKHKNDC [YLR285C-A C-terminal 12 aa] | 0.686 ± 0.0091 | 0.657 ± 0.0068
50 | WKKFIPKTWLSS [CQD2 C-terminal 12 aa] | 0.7 ± 0.0086 | 0.4878 ± 0.0047
51 | IDSNNAQSKIFS [MYO1 C-terminal 12 aa] | 0.6956 ± 0.00034 | 0.6648 ± 0.0055
52 | YKSKRNTPTMLS [ISU1 C-terminal 12 aa] | 0.714 ± 0.027 | 0.653 ± 0.026
53 | AVSEELIKMWYD [GCN3 C-terminal 12 aa] | 0.7218 ± 0.0015 | 0.736 ± 0.037
54 | RLGLDWKPDGMS [STD1 C-terminal 12 aa] | 0.725 ± 0.029 | 0.6963 ± 0.0059
55 | TEIPYKPFTRQP [YOR293C-A C-terminal 12 aa] | 0.724 ± 0.0085 | 0.739 ± 0.013
56 | RDLNKLRSFQNF [YFL012W C-terminal 12 aa] | 0.724 ± 0.024 | 0.4914 ± 0.0021
57 | GCGEDLKKDILS [DOP1 C-terminal 12 aa] | 0.71 ± 0.017 | 0.668 ± 0.024
58 | CFRWLVRNHLLS [YEL045C C-terminal 12 aa] | 0.692 ± 0.0081 | 0.187 ± 0.0022
59 | LVICCQRCRRNC [YPL277C C-terminal 12 aa] | 0.69 ± 0.0082 | 0.552 ± 0.051
60 | EPKEIVDGKVLK [CAM1 C-terminal 12 aa] | 0.692 ± 0.021 | 0.708 ± 0.034
61 | FRQSWQIDIGTW [YAL037C-B C-terminal 12 aa] | 0.7097 ± 0.0042 | 0.676 ± 0.017
62 | VRGRKSRNTSRV [REP2 C-terminal 12 aa] | 0.711 ± 0.013 | 0.755 ± 0.035
63 | LKHFVSAPSSSL [MRK1 C-terminal 12 aa] | 0.699 ± 0.011 | 0.656 ± 0.0095

Row | Sequence | protein stability index [1] | protein stability index (genetic background: wild type)
64 | SSFEKFQYYSKA [AGP2 C-terminal 12 aa] | 0.72 ± 0.024 | 0.688 ± 0.049
65 | NTSTYGQTVQPV [YLR456W C-terminal 12 aa] | 0.6791 ± 0.00098 | 0.678 ± 0.041
66 | SKLNNGEIIVID [SRS2 C-terminal 12 aa] | 0.685 ± 0.0081 | 0.702 ± 0.047
67 | SLSTFPFVYKYL [EST3 C-terminal 12 aa] | 0.749 ± 0.019 | 0.127 ± 0.0095
68 | KESSTSSEKQIA [THI72 C-terminal 12 aa] | 0.67657 ± 0.00024 | 0.6804 ± 0.0025
69 | IEFSMRSLCQGK [CFT1 C-terminal 12 aa] | 0.7166 ± 0.0059 | 0.685 ± 0.038
70 | SSLMVIHPLDDT [MID1 C-terminal 12 aa] | 0.6918 ± 0.0012 | 0.695 ± 0.006
71 | ITNEVNIYSPFF [YOR105W C-terminal 12 aa] | 0.73841 ± 0.00012 | 0.7762 ± 0.0059
72 | LISRRREDEERN [YPL216W C-terminal 12 aa] | 0.788 ± 0.038 | 0.726 ± 0.037
73 | LDDNELFKNVWS [AGE2 C-terminal 12 aa] | 0.728 ± 0.017 | 0.713 ± 0.017
74 | VKHKVVSVDEDN [MPM1 C-terminal 12 aa] | 0.681 ± 0.014 | 0.6529 ± 0.001
75 | FSCHSFEYLARR [YDR401W C-terminal 12 aa] | 0.701 ± 0.013 | 0.677 ± 0.047
76 | NENEFIAICTDS [CDC31 C-terminal 12 aa] | 0.698 ± 0.02 | 0.695 ± 0.022
77 | EEDIFYRNQVVF [YKR075C C-terminal 12 aa] | 0.738 ± 0.0081 | 0.777 ± 0.059
78 | ESQPAPKEAPDY [SNP1 C-terminal 12 aa] | 0.674 ± 0.028 | 0.702 ± 0.022
79 | GYDTVASLDFWG [ROM2 C-terminal 12 aa] | 0.742 ± 0.018 | 0.761 ± 0.047
80 | SEFPTCCDQAAI [SLZ1 C-terminal 12 aa] | 0.707 ± 0.01 | 0.721 ± 0.0094
81 | VLDDAEETKESH [ATP14 C-terminal 12 aa] | 0.689 ± 0.024 | 0.67 ± 0.023
82 | NWDQHNPRNSIH [IRC10 C-terminal 12 aa] | 0.719 ± 0.013 | 0.78 ± 0.067
